± gives the uncertainty stated by the source.
B1: Gamma-crystallin C, residues 4 to 79; numbered along this chain, P07315 (parent)
chain: ITFYEDRAFQGRSYETTTDCPNLQPYFSRCNSIRVESGCWMLYERPNYQGQQYLLRRGEYPDYQQWMGLSDSIRSC

Variants of: B1
Assay: abundance fitness (aPCA) (normalised: wild type 0, dead -1); higher = more abundant; growth selection in yeast, the domain comes from the species named
Conditions: Homo sapiens
Work on ITFYEDRAFKGRSYETTTDCPNLQPYFSRCNSIRVESGCWMLYERPNYQGQQYLLRRGEYPDYQQWMGLSDSIRSC [Q10K] yielded an abundance fitness of 0.158 ± 0.11. In the case of ITFYEDRAFLGRSYETTTDCPNLQPYFSRCNSIRVESGCWMLYERPNYQGQQYLLRRGEYPDYQQWMGLSDSIRSC [Q10L], the abundance fitness is reported as -0.123 ± 0.067. Work on ITFYEDRAFMGRSYETTTDCPNLQPYFSRCNSIRVESGCWMLYERPNYQGQQYLLRRGEYPDYQQWMGLSDSIRSC [Q10M] yielded an abundance fitness of -0.228 ± 0.11. Work on ITFYEDRAFNGRSYETTTDCPNLQPYFSRCNSIRVESGCWMLYERPNYQGQQYLLRRGEYPDYQQWMGLSDSIRSC [Q10N] yielded an abundance fitness of -0.094 ± 0.13. Variant ITFYEDRAFPGRSYETTTDCPNLQPYFSRCNSIRVESGCWMLYERPNYQGQQYLLRRGEYPDYQQWMGLSDSIRSC [Q10P] has an abundance fitness of -1.2 ± 0.42. For ITFYEDRAFRGRSYETTTDCPNLQPYFSRCNSIRVESGCWMLYERPNYQGQQYLLRRGEYPDYQQWMGLSDSIRSC [Q10R], the abundance fitness was -0.082 ± 0.052. In the case of ITFYEDRAFSGRSYETTTDCPNLQPYFSRCNSIRVESGCWMLYERPNYQGQQYLLRRGEYPDYQQWMGLSDSIRSC [Q10S], the abundance fitness is reported as -0.066 ± 0.066. Variant ITFYEDRAFTGRSYETTTDCPNLQPYFSRCNSIRVESGCWMLYERPNYQGQQYLLRRGEYPDYQQWMGLSDSIRSC [Q10T] has an abundance fitness of 0.034 ± 0.15. ITFYEDRAFVGRSYETTTDCPNLQPYFSRCNSIRVESGCWMLYERPNYQGQQYLLRRGEYPDYQQWMGLSDSIRSC [Q10V] gave an abundance fitness of 0.033 ± 0.073. Variant ITFYEDRAFWGRSYETTTDCPNLQPYFSRCNSIRVESGCWMLYERPNYQGQQYLLRRGEYPDYQQWMGLSDSIRSC [Q10W] has an abundance fitness of -0.159 ± 0.091. In the case of ITFYEDRAFYGRSYETTTDCPNLQPYFSRCNSIRVESGCWMLYERPNYQGQQYLLRRGEYPDYQQWMGLSDSIRSC [Q10Y], the abundance fitness is reported as -0.107 ± 0.22. With ITFYEDRAFQCRSYETTTDCPNLQPYFSRCNSIRVESGCWMLYERPNYQGQQYLLRRGEYPDYQQWMGLSDSIRSC [G11C] the abundance fitness was -0.299 ± 0.12. Variant ITFYEDRAFQDRSYETTTDCPNLQPYFSRCNSIRVESGCWMLYERPNYQGQQYLLRRGEYPDYQQWMGLSDSIRSC [G11D] has an abundance fitness of -0.5 ± 0.18. Work on ITFYEDRAFQERSYETTTDCPNLQPYFSRCNSIRVESGCWMLYERPNYQGQQYLLRRGEYPDYQQWMGLSDSIRSC [G11E] yielded an abundance fitness of -0.321 ± 0.21. ITFYEDRAFQFRSYETTTDCPNLQPYFSRCNSIRVESGCWMLYERPNYQGQQYLLRRGEYPDYQQWMGLSDSIRSC [G11F] showed an abundance fitness of -0.919 ± 0.39. ITFYEDRAFQHRSYETTTDCPNLQPYFSRCNSIRVESGCWMLYERPNYQGQQYLLRRGEYPDYQQWMGLSDSIRSC [G11H] gave an abundance fitness of -0.49 ± 0.24. In the case of ITFYEDRAFQLRSYETTTDCPNLQPYFSRCNSIRVESGCWMLYERPNYQGQQYLLRRGEYPDYQQWMGLSDSIRSC [G11L], the abundance fitness is reported as -0.41 ± 0.072. ITFYEDRAFQMRSYETTTDCPNLQPYFSRCNSIRVESGCWMLYERPNYQGQQYLLRRGEYPDYQQWMGLSDSIRSC [G11M] showed an abundance fitness of -0.504 ± 0.14. With ITFYEDRAFQNRSYETTTDCPNLQPYFSRCNSIRVESGCWMLYERPNYQGQQYLLRRGEYPDYQQWMGLSDSIRSC [G11N] the abundance fitness was 0.162 ± 0.49. Variant ITFYEDRAFQQRSYETTTDCPNLQPYFSRCNSIRVESGCWMLYERPNYQGQQYLLRRGEYPDYQQWMGLSDSIRSC [G11Q] has an abundance fitness of -0.421 ± 0.15. In the case of ITFYEDRAFQRRSYETTTDCPNLQPYFSRCNSIRVESGCWMLYERPNYQGQQYLLRRGEYPDYQQWMGLSDSIRSC [G11R], the abundance fitness is reported as -0.155 ± 0.047. ITFYEDRAFQSRSYETTTDCPNLQPYFSRCNSIRVESGCWMLYERPNYQGQQYLLRRGEYPDYQQWMGLSDSIRSC [G11S] showed an abundance fitness of -0.142 ± 0.079. ITFYEDRAFQVRSYETTTDCPNLQPYFSRCNSIRVESGCWMLYERPNYQGQQYLLRRGEYPDYQQWMGLSDSIRSC [G11V] showed an abundance fitness of -0.393 ± 0.06. ITFYEDRAFQWRSYETTTDCPNLQPYFSRCNSIRVESGCWMLYERPNYQGQQYLLRRGEYPDYQQWMGLSDSIRSC [G11W] showed an abundance fitness of -0.955 ± 0.19. ITFYEDRAFQYRSYETTTDCPNLQPYFSRCNSIRVESGCWMLYERPNYQGQQYLLRRGEYPDYQQWMGLSDSIRSC [G11Y] gave an abundance fitness of -0.591 ± 0.19. Variant ITFYEDRAFQGASYETTTDCPNLQPYFSRCNSIRVESGCWMLYERPNYQGQQYLLRRGEYPDYQQWMGLSDSIRSC [R12A] has an abundance fitness of -0.058 ± 0.071. Work on ITFYEDRAFQGCSYETTTDCPNLQPYFSRCNSIRVESGCWMLYERPNYQGQQYLLRRGEYPDYQQWMGLSDSIRSC [R12C] yielded an abundance fitness of -0.063 ± 0.063. ITFYEDRAFQGESYETTTDCPNLQPYFSRCNSIRVESGCWMLYERPNYQGQQYLLRRGEYPDYQQWMGLSDSIRSC [R12E] gave an abundance fitness of 0.066 ± 0.072. In the case of ITFYEDRAFQGFSYETTTDCPNLQPYFSRCNSIRVESGCWMLYERPNYQGQQYLLRRGEYPDYQQWMGLSDSIRSC [R12F], the abundance fitness is reported as 0.026 ± 0.11. Work on ITFYEDRAFQGISYETTTDCPNLQPYFSRCNSIRVESGCWMLYERPNYQGQQYLLRRGEYPDYQQWMGLSDSIRSC [R12I] yielded an abundance fitness of 0.017 ± 0.077. For ITFYEDRAFQGKSYETTTDCPNLQPYFSRCNSIRVESGCWMLYERPNYQGQQYLLRRGEYPDYQQWMGLSDSIRSC [R12K], the abundance fitness was 0.031 ± 0.1. In the case of ITFYEDRAFQGLSYETTTDCPNLQPYFSRCNSIRVESGCWMLYERPNYQGQQYLLRRGEYPDYQQWMGLSDSIRSC [R12L], the abundance fitness is reported as -0.034 ± 0.053. For ITFYEDRAFQGMSYETTTDCPNLQPYFSRCNSIRVESGCWMLYERPNYQGQQYLLRRGEYPDYQQWMGLSDSIRSC [R12M], the abundance fitness was -0.043 ± 0.079. ITFYEDRAFQGPSYETTTDCPNLQPYFSRCNSIRVESGCWMLYERPNYQGQQYLLRRGEYPDYQQWMGLSDSIRSC [R12P] showed an abundance fitness of -0.053 ± 0.076. With ITFYEDRAFQGQSYETTTDCPNLQPYFSRCNSIRVESGCWMLYERPNYQGQQYLLRRGEYPDYQQWMGLSDSIRSC [R12Q] the abundance fitness was 0.022 ± 0.083. ITFYEDRAFQGSSYETTTDCPNLQPYFSRCNSIRVESGCWMLYERPNYQGQQYLLRRGEYPDYQQWMGLSDSIRSC [R12S] showed an abundance fitness of -0.033 ± 0.048.
